Measurements taken from patent US20210147523A1 (TEIJIN PHARMA, published 2021).

Tests used:
mouse SPNS2 = target: T1, mouse SPNS2 (mouse, UniProt Q91VM4 1-549); assay: cell-based or functional assay
T1 sequence: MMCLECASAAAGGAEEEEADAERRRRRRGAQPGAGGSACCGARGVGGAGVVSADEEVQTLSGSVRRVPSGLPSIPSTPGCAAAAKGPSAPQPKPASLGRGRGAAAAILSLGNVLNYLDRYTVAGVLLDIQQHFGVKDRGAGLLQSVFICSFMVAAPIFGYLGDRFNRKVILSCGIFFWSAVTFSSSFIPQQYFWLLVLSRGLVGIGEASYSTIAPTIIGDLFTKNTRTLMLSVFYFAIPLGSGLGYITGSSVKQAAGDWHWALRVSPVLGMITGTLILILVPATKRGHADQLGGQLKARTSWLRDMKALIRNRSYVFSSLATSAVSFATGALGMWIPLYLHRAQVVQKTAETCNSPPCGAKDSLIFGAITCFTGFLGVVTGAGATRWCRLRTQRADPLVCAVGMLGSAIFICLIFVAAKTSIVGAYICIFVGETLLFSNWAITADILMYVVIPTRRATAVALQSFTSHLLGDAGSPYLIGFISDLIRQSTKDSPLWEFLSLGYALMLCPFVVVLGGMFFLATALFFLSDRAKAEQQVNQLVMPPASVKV

[1] = target: T2, Mutant 1 of human SPNS2 (FLAG tag inserted in extracellular loop 1) (human, UniProt Q8IVW8 1-549); assay: flow cytometry, FLAG-insertion mutant
T2 construct: on HEK293 cells; also called extracellular loop 1 mutant
T2 sequence: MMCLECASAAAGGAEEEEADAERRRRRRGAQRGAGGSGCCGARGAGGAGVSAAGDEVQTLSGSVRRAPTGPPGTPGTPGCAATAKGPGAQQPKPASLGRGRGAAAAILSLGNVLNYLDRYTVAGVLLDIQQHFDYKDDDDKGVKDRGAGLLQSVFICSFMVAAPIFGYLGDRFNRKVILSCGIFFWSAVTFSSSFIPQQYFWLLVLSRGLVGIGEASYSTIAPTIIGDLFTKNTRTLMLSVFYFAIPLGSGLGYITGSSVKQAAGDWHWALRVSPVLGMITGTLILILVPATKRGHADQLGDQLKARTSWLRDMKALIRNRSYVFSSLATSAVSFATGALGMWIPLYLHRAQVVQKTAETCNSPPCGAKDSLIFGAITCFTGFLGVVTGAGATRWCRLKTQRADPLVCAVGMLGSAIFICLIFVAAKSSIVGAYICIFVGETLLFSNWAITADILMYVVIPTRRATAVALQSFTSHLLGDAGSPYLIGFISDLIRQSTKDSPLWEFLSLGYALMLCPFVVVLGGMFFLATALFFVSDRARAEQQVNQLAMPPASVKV
In short: (§1)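 HEK 293 cells were lipofected with the mutant and cultured overnight, then stained 30 min at room temperature with anti-FLAG and anti-SPNS2 antibodies, each at 20 μg/mL. Detection used anti-mouse IgG-Alexa 647 and anti-rat IgG-FITC. Binding is the ratio of FITC-positive to Alexa 647-positive cell rate, scored (+) <0.1, (±) 0.1–<0.5, (−) ≥0.5.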

[2] = target: T3, Mutant 4 of human SPNS2 (FLAG tag inserted in extracellular loop 11) (human, UniProt Q8IVW8 1-549); assay: flow cytometry, FLAG-insertion mutant
T3 construct: on HEK293 cells; also called extracellular loop 11 mutant
T3 sequence: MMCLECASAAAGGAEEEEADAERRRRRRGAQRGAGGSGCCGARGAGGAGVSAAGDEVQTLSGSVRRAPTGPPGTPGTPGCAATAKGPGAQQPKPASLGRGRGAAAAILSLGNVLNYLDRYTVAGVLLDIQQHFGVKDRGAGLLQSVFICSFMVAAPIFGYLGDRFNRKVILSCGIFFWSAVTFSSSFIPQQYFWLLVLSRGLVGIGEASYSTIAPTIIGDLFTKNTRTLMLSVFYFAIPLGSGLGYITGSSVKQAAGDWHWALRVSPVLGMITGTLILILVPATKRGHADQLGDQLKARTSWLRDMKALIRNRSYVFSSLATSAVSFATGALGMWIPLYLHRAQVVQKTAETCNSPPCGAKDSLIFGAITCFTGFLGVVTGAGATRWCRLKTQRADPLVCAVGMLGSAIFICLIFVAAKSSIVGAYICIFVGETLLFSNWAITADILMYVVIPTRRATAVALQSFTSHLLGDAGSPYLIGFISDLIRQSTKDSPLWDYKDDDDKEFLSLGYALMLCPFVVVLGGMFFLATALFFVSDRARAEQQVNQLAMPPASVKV
In short: as §1

[3] = target: T4, Mutant 2 of human SPNS2 (FLAG tag inserted in extracellular loop 5) (human, UniProt Q8IVW8 1-549); assay: flow cytometry, FLAG-insertion mutant
T4 construct: on HEK293 cells; also called extracellular loop 5 mutant
T4 sequence: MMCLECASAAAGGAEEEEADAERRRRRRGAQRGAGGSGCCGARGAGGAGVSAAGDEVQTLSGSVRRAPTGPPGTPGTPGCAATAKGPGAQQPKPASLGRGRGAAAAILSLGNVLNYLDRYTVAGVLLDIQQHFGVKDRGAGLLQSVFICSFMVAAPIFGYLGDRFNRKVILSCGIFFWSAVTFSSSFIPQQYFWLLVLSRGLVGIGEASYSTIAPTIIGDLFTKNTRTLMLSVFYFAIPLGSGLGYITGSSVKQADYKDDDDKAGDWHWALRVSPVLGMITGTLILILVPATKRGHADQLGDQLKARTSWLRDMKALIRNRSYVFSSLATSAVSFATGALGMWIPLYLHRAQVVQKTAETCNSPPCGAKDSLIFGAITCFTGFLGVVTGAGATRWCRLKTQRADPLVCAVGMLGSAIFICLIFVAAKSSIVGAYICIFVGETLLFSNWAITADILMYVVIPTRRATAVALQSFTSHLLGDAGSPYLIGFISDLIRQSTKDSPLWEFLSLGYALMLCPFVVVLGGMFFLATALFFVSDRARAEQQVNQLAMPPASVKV
In short: as §1

B1: 96-1403F (antibody, IgG2b, V domains shown)
VH: EVQLVETGGGLVRPGSSLKLSCATSGFTFSDTWMSWVRQAPGKGLEWVALIKDKNSNSEANYAESIKGRFTISRDDSKSRVYLQMNTLRDQDTATYYCTRHEDFYYYSGYYFDYWGQGVMVTVSS
VL: DIVLTQSPPTLSVTPGESVSLSCRASQGISTSIHWYQQRSNESPRLLIKYASQSIAGIPSRFSGSGSGTDFILSINRVESEDFSVYYCQQTYSLPLTFGPGTKLEVKR
pIC50, S1P transport inhibition (S1PR3 Ca2+ FLIPR bioassay) (mouse SPNS2): 7.3 pIC50 (M)
FITC+/Alexa 647+ cell rate ratio [1]: < 0.1 ratio
FITC+/Alexa 647+ cell rate ratio [2]: ≥ 0.5 ratio

B2: 82-1109A (antibody, IgG2b, V domains shown)
VH: QVQLQQSGVELAKPGSSVKISCKASGNTFTSNYITWIKQTPGQGLEYIGYINTGSGKTYYNEKFKGKATLTADKSSSTAFMQLSSLTPDDSAVYFCASLTGVDYFDDWGQGVMVTVSS
VL: DDIVLTQSPALAPSLGQRATISCRASQSVRMSGYNLMHWYQQKPGQQPKLLIYDASKLASGIPARFSGSGSGTDFTLTIDPVQSDDIATYYCQQSKDDPYTFGAGTKLELRR
FITC+/Alexa 647+ cell rate ratio [1]: ≥ 0.5 ratio
FITC+/Alexa 647+ cell rate ratio [3]: ≥ 0.5 ratio
FITC+/Alexa 647+ cell rate ratio [2]: < 0.1 ratio

B3: 50-0704C (antibody, IgG2b, V domains shown)
VH: EVQLVGSGGGLVQPGRSMKLSCEASGFTFSNHYMAWVRQAPTKGLEWVATISTGGGNTYYRDSVKGRFTISRDNARSTLSLQMDSLRSEDTATYYCARQDYSNYMGGFAYWGQGTLVTVSS
VL: QFVLTQPNSVSTNLGSTVKLSCTRSIGNIGNNYVNWYKQYEGRSPTTMIYRDDERPDGVPDRFSGSIDRSSNSALLTINSVQTEDEADYFCQSFSSGIFIFGGGTKLTVL
pIC50, S1P transport inhibition (S1PR3 Ca2+ FLIPR bioassay) (mouse SPNS2): 7.6 pIC50 (M)
FITC+/Alexa 647+ cell rate ratio [1]: < 0.1 ratio
FITC+/Alexa 647+ cell rate ratio [3]: < 0.1 ratio
FITC+/Alexa 647+ cell rate ratio [2]: ≥ 0.5 ratio

B4: 89-1207D (antibody, IgG2b, V domains shown)
VH: EVQLVGSGGGLVQPGRSMKLSCEASGFTFSNHYMAWVRQAPTKGLEWVATISTGGGNTYYRDSVKGRFTISRDNARSILSLQMDSLRSEDTATYYCARQDYSNYMGGFAYWGQGTLVTVSS
VL: QFVLTQPNSVSTNLGSTVKLSCTRSIGNIGNNYVNWYKQYEGRSPTTMIYRDDERPDGVPDRFSGSIDRSSNSALLTINNVQTEDEADYFCQSFSSGMFIFGGGTKLTVL
pIC50, S1P transport inhibition (S1PR3 Ca2+ FLIPR bioassay) (mouse SPNS2): 7.6 pIC50 (M)
FITC+/Alexa 647+ cell rate ratio [1]: < 0.1 ratio
FITC+/Alexa 647+ cell rate ratio [3]: < 0.1 ratio
FITC+/Alexa 647+ cell rate ratio [2]: ≥ 0.5 ratio

B5: 18-0211B (antibody, IgG2b, V domains shown)
VH: AVQLVGSGGGLVQPGRSMKLSCEASGFTFSNHYMAWVRQAPTRGLEWVATISTGGGNTYYRDSVKGRFTISRDNTRSTLSLQMDSLRSEDTATYYCTRQDYTNYMGGFAYWGQGTLVTVSS
VL: QFVLTQPNSVSTNLGSTVKLSCTRSIGNIGNNYVNWYKQYEGRSPTTLIYRDDERPDGVPDRFSGSIDRSSNSALLTINSVQTEDGADYFCQSFSSGIFIFGGGTTLTVL
pIC50, S1P transport inhibition (S1PR3 Ca2+ FLIPR bioassay) (mouse SPNS2): 7.9 pIC50 (M)
FITC+/Alexa 647+ cell rate ratio [1]: < 0.1 ratio
FITC+/Alexa 647+ cell rate ratio [3]: < 0.1 ratio
FITC+/Alexa 647+ cell rate ratio [2]: ≥ 0.5 ratio

B6: 37-0511F (antibody, IgG2b, V domains shown)
VH: EVHLQQSGAALVRPRASVKLSCKVSGDSISRYYVHFVKQRPGQGLEWIGRIDPEDDTTKYSEKFKNRATLTADASSDTASLILSGLTSDDTATYFCSTLTGLDYWGQGVMVTVSS
VL: DIQMTQSPPVLSTSVGDRVTLRCKPSQNVHSKLDWYQQKHGEAPKLLIYYTHNLQTGIPSRFSGSGSGTDYTLTISSLQPEDVATYYCFQYYSGWTFGGGTKLEMKR
pIC50, S1P transport inhibition (S1PR3 Ca2+ FLIPR bioassay) (mouse SPNS2): 7.8 pIC50 (M)
FITC+/Alexa 647+ cell rate ratio [1]: < 0.1 ratio
FITC+/Alexa 647+ cell rate ratio [3]: < 0.1 ratio
FITC+/Alexa 647+ cell rate ratio [2]: ≥ 0.5 ratio

B7: 53-0707E (antibody, IgG2b, V domains shown)
VH: EVQLQQSGAELVRPRTSVKLSCKVSGDSITRYYVHFVKQRPGQGLEWIGRIDPEDDTTKYSEKFKKKATLTADASSNTAYLIFSGLTSEDTATYFCSTLTGLDYWGQGVMVTVSS
VL: DIQMTQSPPVLSTSVGDRVTLRCKASQNVHSKLDWYQQKHGEAPKLLIYYTHNLQTGIPSRFSGSGSGTDYTLTISSLQPEDVATYYCFQYYSGWTFGGGTKLEMKR
pIC50, S1P transport inhibition (S1PR3 Ca2+ FLIPR bioassay) (mouse SPNS2): 7.6 pIC50 (M)
FITC+/Alexa 647+ cell rate ratio [1]: < 0.1 ratio
FITC+/Alexa 647+ cell rate ratio [3]: < 0.1 ratio
FITC+/Alexa 647+ cell rate ratio [2]: ≥ 0.5 ratio

B8: 64-0807A (antibody, IgG2b, V domains shown)
VH: EVQVVESGGGLVQPGRSMKLSCAALGFTFRDYYMAWVRQTPTKGLEWVAAISTGGGNTYYRDSVKGRFTISRDNAKSTLYLQMDSLRSDDTATYYCARNPYGNYFDYWGQGVMVTVSS
VL: QFVLSQPNSVSTNLGSTVKLSCKRSTGNIGSNYVHWYQRHEGRSPTTLIYRDDKRPNGVPDRFSGSIDRSSNSALLTINNVQTEDEADYFCQSYSGGMYLFGGGTKLTVL
pIC50, S1P transport inhibition (S1PR3 Ca2+ FLIPR bioassay) (mouse SPNS2): 7.6 pIC50 (M)
FITC+/Alexa 647+ cell rate ratio [1]: < 0.1 ratio
FITC+/Alexa 647+ cell rate ratio [3]: < 0.1 ratio
FITC+/Alexa 647+ cell rate ratio [2]: ≥ 0.5 ratio

B9: 84-1111F (antibody, IgG2b, V domains shown)
VH: EVQVVESGGGLVQPGRSMKLSCAALGFTFRDYYMAWVRQTPTKGLEWVAAISTGGGNTYYRDSVKGRFTISRDNAKSTLYLKMDSLRSDDTATYYCARNPYGNYFDYWGQGVMVTVSS
VL: QFVLSQPNSVSTNLGSTVKLSCKRSTGNIGSNYVHWYQRHEGRSPTTMIYRDDKRPNGVPDRFSGSIDRSSNSALLTINNVQTEDEADYFCQSYSGGMYLFGGGTTLTVL
pIC50, S1P transport inhibition (S1PR3 Ca2+ FLIPR bioassay) (mouse SPNS2): 8.3 pIC50 (M)
FITC+/Alexa 647+ cell rate ratio [1]: < 0.1 ratio
FITC+/Alexa 647+ cell rate ratio [3]: < 0.1 ratio
FITC+/Alexa 647+ cell rate ratio [2]: ≥ 0.5 ratio

B10: 65-0810G (antibody, IgG2b, V domains shown)
VH: EVHLVESGGGLVQPGRSMKLSCTASGFTFNNYYMAWVRQAPTKGLEWVASISTGGGYTYYRDSVKGRFTISRDNTGNTLYLQMDSLRSEDTATYYCARCWELPYWGQGVMVTVSS
VL: QFVLTQPNSVSTNLGSTVKLSCRRSSGNIGNNYVNWYRQHEGRSPTTMIYRDDTRPDGVPNRFSGSIDRSSNSALLTINNVRPEDEAYYFCQSYSGSIYIFGGGTKLTVL
pIC50, S1P transport inhibition (S1PR3 Ca2+ FLIPR bioassay) (mouse SPNS2): 7.6 pIC50 (M)
FITC+/Alexa 647+ cell rate ratio [1]: < 0.1 ratio
FITC+/Alexa 647+ cell rate ratio [3]: < 0.1 ratio
FITC+/Alexa 647+ cell rate ratio [2]: ≥ 0.5 ratio
